From US20050089538A1 (IMMUNOMEDICS, published 2005)

B1: chimeric MN-14 antibody (MN-14 mouse VH and VK joined to human IgG1 and human kappa constant regions) (antibody, V domains shown)
VH: EVKLLESGGGLVQSGGSLKLSCAASGFDFTTYWMSWVRQAPGKGLEWIGEIHPDSSTINYAPSLKDKFIVSRDNAKNTLYLQMSKVRSEDTALYYCASLYFGFPWFAYWGQGTPVTVSA
VL: EIQLTQSHKMMSTSVGDRVSITCKASQDVGTSVAWYQQRPGQSPKLLIYWTSTRHTGVPDRFTGSVSGTDFTLTITNVQSEDLADYFCQQYSLYRSFGGGTKLEIK
notes: Human IgG1 constant region (Takahashi et al.) and human kappa constant region (Hieter et al.); The variable regions were re-amplified with primers VH1BACK/VH1FOR and VK8BACK/VK3FOR, so their terminal residues may be dictated by the primers; also called chimeric control; chimeric antibody
B2: murine anti-CEA IgG1 monoclonal antibody MN-14 (antibody, V domains shown)
VH: EVKLLESGGGLVQSGGSLKLSCAASGFDFTTYWMSWVRQAPGKGLEWIGEIHPDSSTINYAPSLKDKFIVSRDNAKNTLYLQMSKVRSEDTALYYCASLYFGFPWFAYWGQGTPVTVSA
VL: EIQLTQSHKMMSTSVGDRVSITCKASQDVGTSVAWYQQRPGQSPKLLIYWTSTRHTGVPDRFTGSVSGTDFTLTITNVQSEDLADYFCQQYSLYRSFGGGTKLEIK
notes: Murine kappa IgG1; also called mMN-14; murine control

Tests used:
[1] = biological target: T1, carcinoembryonic antigen (human, UniProt P06731 35-685, limits assumed); assay: MN-14 blocking assay on CEA, competitor HRP-labeled MN-14 (FIG. 9)
T1 construct: CEA sample fixed to a solid support, directly or through a capture antibody such as MN-15; also called CEA
T1 sequence (looked up): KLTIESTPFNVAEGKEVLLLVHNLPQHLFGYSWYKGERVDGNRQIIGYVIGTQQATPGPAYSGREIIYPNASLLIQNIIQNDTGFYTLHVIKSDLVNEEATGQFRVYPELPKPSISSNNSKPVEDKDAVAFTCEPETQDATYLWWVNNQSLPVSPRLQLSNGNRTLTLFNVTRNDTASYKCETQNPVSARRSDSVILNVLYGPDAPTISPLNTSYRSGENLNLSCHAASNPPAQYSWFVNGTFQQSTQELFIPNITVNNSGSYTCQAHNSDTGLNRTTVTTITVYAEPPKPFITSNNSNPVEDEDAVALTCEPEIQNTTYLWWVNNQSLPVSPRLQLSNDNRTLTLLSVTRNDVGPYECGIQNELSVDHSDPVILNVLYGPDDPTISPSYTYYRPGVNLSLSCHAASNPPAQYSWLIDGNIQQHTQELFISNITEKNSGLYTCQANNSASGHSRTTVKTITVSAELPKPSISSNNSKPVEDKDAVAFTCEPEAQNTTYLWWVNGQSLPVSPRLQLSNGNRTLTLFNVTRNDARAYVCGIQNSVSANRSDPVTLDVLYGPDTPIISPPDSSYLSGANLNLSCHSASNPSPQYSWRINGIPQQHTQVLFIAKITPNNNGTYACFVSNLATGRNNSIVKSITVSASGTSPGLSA
Description: (§1) The humanized KLHuVH varients, such as antibody KLHuVHAIGA/HuVK, were purified and tested in a blocking assay carried out as follows. Antibodies were added at the indicated concentrations together with HRP-labeled MN-14 to a final volume of 0.1 ml. Following 30 mins. of incubation at 37₁C, and washing to remove unbound antibodies, the relative affinities of the antibodies were determined from the remaining bound peroxidase activity. A shown by the assay data of FIG. 9, the activity of the “reshaped” (i.e., CDR-engrafted on FR) humanized antibody was similar to that of chimeric and murine positive controls.

[2] = biological target: T1, carcinoembryonic antigen; assay: MN-14 blocking assay on CEA, unlabelled murine MN-14 against HRP-labeled MN-14 (FIG. 9)
Description: as §1

Binder | binding result [1] | binding result [2]
B1 | binds | –
B2 | – | binds
